{"source": "patent US20230332166A1", "about": "“FORMATE-INDUCIBLE PROMOTERS AND METHODS OF USE THEREOF” (Imperial College Innovations Ltd, priority 2020, published 2023)", "molecules": {"B1": {"name": "Yali0B22506: putative Y. lipolytica FDH gene; promoter region SEQ ID NO: 4 (1 Kb) and 20 (1.5 Kb) (nucleic acid, listed as Yarrowia lipolytica)", "DNA": "ATGAAGATTCTCCTTATCCTTTACGACGCCGGCTCCCACGCTGCTGACGAACCCAAGCTGCTAGGTTGCACCGAGAACGAGCTCGGCATCCGATCCTGGCTCGAGTCCCAGGGCCATACCCTGGTCACCACCTCTTCCAAGGAGGGTGCTGACTCTGTTCTCGACAAGGAGATTGTTGATGCCGATGTTGTCATCACCACTCCCTTCCACCCCGGCTACATCACCCGAGAGCGAATTGCCAAGGCCAAGAACCTCAAGATCTGTGTCACTGCCGGTGTTGGCTCTGACCACGTTGATCTTGCTGCCGCCAACGAGAGAAACATTGCCGTGCTCGAGGTCACTGGTTCCAACGTGACTTCTGTTGCTGAGCACGTTGTCATGACCATGCTTGTTCTTGTCCGAAACTTCGTGCCTGCCAACGAGCAGGTTCGAGGCGGCGGCTGGGACGTTGCCGGTGTTGCCAAGGATTCCTACGATATTGAGGGTAAGGTCATTGGTACCGTCGGAGTCGGCCGAATCGGCAAGCGAGTGCTCCAGCGACTCAAGCCCTTCGACCCCAAGGAGCTGCTCTACTACGACTATCAGCCTCTGTCTGCTGCCGACGAGAAGGAGATTGGCGCCCGACGAGTTGAGAAGCTCGAGGACATGCTTGCCCAGTGTGATGTTGTCACCATCAACTGCCCCCTGCACGAATCCACCAAGGGTCTCTTTAACAAGGAGCTGCTGTCCCACATGAAGAAGGGCGCCTGGCTCGTCAACACCGCTCGAGGAGCCATCTGTGTAAAGGAGGACGTTGCCGCCGCTCTCAAGTCTGGTCAGCTCCGAGGCTACGGCGGAGATGTCTGGTTCCCCCAGCCTGCCCCTGCTGACCACCCCTGGAGAAAGATGGTCAACAAGTACGGTGCCGGTAACGCCATGACCCCCCACATGTCTGGAACCTCTCTGGACGCCCAGGCCCGATACGCTGCTGGTGTCAAGCAGATTCTCGACGAGTTCTTCTCCGGCCGAGAACAGTACCGACCCCAGGACATTATCTGCTACGGTGGTAACTACGGCACCAAGGCCTACGGAGACGACAAGAAGGTCGTCGACAAGAAGTAATCCGTCCAACGTTCTTCTCAGCGCACAGGTACCTATACTACTGGTAGTATCAGGTTAAACCTCTTTTAGTTTAATGATAAGATAAGATAACATACCGT", "modifications": "YALI0B22506g"}, "B2": {"name": "Yali0E15840: putative Y. lipolytica FDH gene; promoter region SEQ ID NO: 10 (1 Kb) and 26 (1.5 Kb) (nucleic acid, listed as Yarrowia lipolytica)", "DNA": "ATGAAGGTCCTTCTTGTTCTTTACGATGCTGGCTCTCACGCTGCTGACGAGCCCAAGCTCCTTGGATGCACCGAAAACGAGCTCGGTATCCGAGACTGGCTCGAGTCCCAGGGCCACACGCTTGTCACCACCTCTTCCAAGGATGGCGCCGACTCTGTGCTCGACAAGGAAATTGTTGACGCCGACGTTGTCATCACCACCCCCTTCCACCCCGGCTACATCAACAAGGAGCGAATCGACAAGGCCAAGAAGCTCAAGATCTGCATCACCGCCGGAGTCGGCTCGGACCACGTTGATCTCGATGCTGCCAACGCTCGAGATATCGCTGTTCTGGAGGTCACTGGTTCTAATGTCCAATCCGTCGCTGAGCATGTTGTCATGACTATGCTCGTTCTGGTCCGAAACTTTGTCCCCGCCCACGAGCAGATCATTTCCGGCGGGTGGGACGTTGCGGCGGTCGCCAAGGACTCCTACGATCTAGAGGGTAAGGTCATCGGTACCGTGGGAGGCGGCCGAATCGGTCAGCGTGTCCTCAAGCGATGCAAGCCTTTCGACCCCATGGAAATGCTCTACTACGATTACCAGCCCATGCCTGCCGACGTCGAAGAGGAGATTGGCTGCCGACGAGTCGAGTCGCTCGAGCAAATGCTTTCTCTGTGTGATGTTGTCACTATCAACTGCCCTCTGCACGCCTCCACCAAGGGTCTCTTCAACAAGGAGCTCATCTCCCACATGAAGGATGGAGCCTGGCTCGTCAACACTGCTCGAGGAGCCATCTGCGTCACCGAGGACATTGTCGAGGCCCTAGAGTCCGGCAAAATCCGAGGATACGGAGGAGACGTCTGGTTCCCCCAGCCTGCCCCCAAGGACCACCCCTGGAGAACCATGCGAAACAATTACGGTGGTGGAAACGCCATGACTCCCCACATCTCCGGAACCTCCATTGATGCCCAGGGCCGATACGCTGAGGGTACCAAGAAGATCCTCGAGGTCTTTTTCTCGGGCAAGCAGGATTATCGACCCCAGGATATCATCTGTATCAACGGCCATTATGGTACCAAGGCCTACGGTGACGACAAAGAGCATAAGGAGCATCAGCTCAAGTAA", "modifications": "YALI0E15840g"}, "B3": {"name": "Yali0F13937: putative Y. lipolytica FDH gene; promoter region SEQ ID NO: 6 (1 Kb) and 22 (1.5 Kb) (nucleic acid, listed as Yarrowia lipolytica)", "DNA": "ATGAAGGTCCTTCTTATTCTCTATGATGCCGGCTCTCACGCTAAGGATGAGCCCAAGCTCCTTGGATGCACCGAGAACGAGCTCGGTATCCGAGACTGGCTCGAGTCTCAGGGCCATACTCTCGTTACCACCTCTTCCAAGGATGGCGCCGACTCTGTGCTTGACAAGGAGATTGTTGACGCCGATGTAGTCATCACTACCCCCTTCCACCCTGGCTACATCAACAAGGAGCGAATCGACAAGGCCAAGAAGCTCAAGATCTGCATCACTGCCGGTGTGGGCTCGGACCACGTTGATCTCGATGCTGCCAACGCTCGAGATATCGCTGTTCTGGAAGTCACTGGTTCTAATGTCCAGTCCGTCGCTGAGCATGTTGTCATGACTATGCTCGTTCTGGTCCGAAACTTTGTCCCCGCCCACGAGCAAATCATCTCTGGCGGCTGGGATGTTGCTGCTGTCGCCAAGGACTCCTACGATCTCGAGGGTAAGGTCATCGGTACCGTTGGTGGCGGCCGAATCGGCCAGCGTGTCCTCAAGCGATGCAAGCCCTTCGACCCCATGGAAATGCTCTACTACGACTACCAGCCCATGCCTGCCGACGTCGAAAAGGAGATTGGTTGCCGACGAGTTGAGTCTCTGGAGGAGATGCTCTCTCTGTGTGATGTCGTGACCATCAATTGCCCTCTGCACGCCTCCACCAAGGGCCTCTTCAACAAGGAGCTCATCTCGCACATGAAGAATGGTGCTTGGCTCGTCAACACTGCTCGAGGAGCCATCTGCGTTACCGAGGACATTGTCGAGGCACTCGAGTCCGGCAAGATGCGAGGATACGGTGGTGATGTCTGGTTCCCCCAGCCTGCCCCCAAGGACCATCCCTGGAGAACCATGCGAAACAAGTACGGTGGTGGAAACGCCATGACTCCTCATATCTCTGGCACTTCCATCGATGCCCAGGGCCGATACGCCGAGGGAACAAAGAAGATCCTCGAGGTCTTCTTCTCTGGCAAGCAGGATTACCGACCCCAGGACATTATCTGCATCAACGGTCACTACGGTACCAAGGCTTACGGTGACGACAAGGAGCACAAGGAGCACCAGCTTAAGTAAACATTTTTATAGTAACATCTCATTTTGT", "modifications": "YALI0F13937g"}}, "tested_on": "Y. lipolytica JMY2900", "experiment": "qPCR of putative FDH gene transcription upon induction with sodium formate", "format": "cell-based, Yarrowia lipolytica", "settings": "YNB with 0.5% sodium formate, 6 h, 28° C., vs absence of formate; qPCR normalised to actin", "procedure": "FIG. 3: Transcription levels of the FDH genes of Yarrowia lipolytica W29 measured by qPCR, normalised to actin (ACT1) expression. Yarrowia lipolytica was grown in YNB supplemented with 1% glucose and 0.5% yeast extract at 15 h at 28° C., before being washed and transferred into YNB with 0.5% of sodium formate for induction and grown for 6 h.\nThe inducibility of the putative FDH genes with formate was then tested by qPCR. YALI0E14256g1_1 and the nine putative FDH with the highest % identity to YALI0E14256g1_1 were selected for testing. Y. lipolytica JMY2900 was cultured in YNB media supplemented with 1% glucose and 0.5% yeast extract for 15 h at 28° C. Cells were washed with distilled water and cultured in fresh liquid YNB media supplemented with 0.5% sodium formate at 28° C. with agitation at 160 rpm, before being harvested at 6 h post-inoculated. Cells were frozen in liquid nitrogen and stored at −80° C. RNA was subsequently extracted using the RNeasy Mini Kit (Qiagen), and 2 μg was treated with DNAse (Ambion; Life Science Technologies, Saint-Aubain, France). cDNA was synthesised using the Maxima First Strand cDNA synthesis kit (Thermo Fischer Scientific, Villebon sur Yvette, France). qPCR was then performed using the SYBRgreen mastermix (Thermo Fischer Scientific) with gene-specific primers designed using Primer3 software. Relative expression levels were calculated using ΔCT and ΔΔCT methods. Expression levels were normalised to actin.", "data": [{"molecule": "B1", "values": [{"measurement": "Fold increase on induction (fold change expression of putative FDH genes upon induction with sodium formate)", "result": 2.9, "unit": "fold"}]}, {"molecule": "B2", "values": [{"measurement": "Fold increase on induction (fold change expression of putative FDH genes upon induction with sodium formate)", "result": 5.7, "unit": "fold"}]}, {"molecule": "B3", "values": [{"measurement": "Fold increase on induction (fold change expression of putative FDH genes upon induction with sodium formate)", "result": 38.6, "unit": "fold"}]}]}
